Reference: the supplement of paper PMC12764529
± gives the half width of the 95% confidence interval.

Key:
[1] = folding stability dG unfold from trypsin proteolysis; higher = more stable
Outline: (§1)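 Sequencing followed digestion of designed mini-proteins with trypsin and chymotrypsin, each at 11 concentrations in threefold dilutions together with a no-protease condition. The mini-proteins were under 80 residues, had no cysteine, sat in a PA-tagged cDNA display construct, and were kept only if AlphaFold2 dimer inter-PAE was above 15. From the counts, Bayesian fitting gave K50, and unfolding free energy was derived against a sequence-predicted unfolded-state K50 and a shared folded-state K50, per protease or combined.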

[2] = folding stability dG unfold from chymotrypsin proteolysis; higher = more stable
Outline: as §1

[3] = folding stability dG unfold (combined trypsin and chymotrypsin); higher = more stable
Outline: as §1

| Sequence | folding stability dG unfold [1] [kcal/mol] | folding stability dG unfold [2] [kcal/mol] | folding stability dG unfold [3] [kcal/mol] |
| --- | --- | --- | --- |
| SAGSKEALLSDPSFEPVEVEIHLEIEVPGVTPEEAEAIAKELEKEITEELKKKGIKNVKVTVTIRYVERSAG [r5_431_JUSTAS] | 1.71 ± 0.044 | 2.49 ± 0.057 | 2.24 ± 0.071 |
| SAGSKEFPFESEFEFEGYRVKVEVKVRVEFDENGKPTKNFKPEIKIEIKPLPPKPVITAEEALKLDPEKSAG [r14_442_TrMRF] | 0.114 ± 0.19 | 1.93 ± 0.14 | 1.47 ± 0.3 |
| SAGSKVPVTATATFSDKAELEKTVADIKAKTGYDIEVTYDPNSNSYTITVNTTDEVVKMLKEKGFKLESAGG [r19_306_JUSTAS] | 2.33 ± 0.13 | 1.94 ± 0.13 | 2.14 ± 0.28 |
| SAGSLELPPGVSEVVYDPSSGVYSVRYPDGTLVQVDVLYEPDPFVDELHPVAFVSVYSPTSLLATAPLNSAG [r5_109_TrMRF] | 0.821 ± 0.019 | 1.07 ± 0.11 | 0.979 ± 0.067 |
| SAGSMKIKIKAKVPPGPYRIRIMWQYPGGDFKPVEEETVDPGQEVKIPIEFPDGKPFDPDNIRVMIEPPSAG [r5_287_TrROS] | 1.44 ± 0.14 | 2.47 ± 0.097 | 2.08 ± 0.25 |
| SAGSMLLIKITITFKDPNGNLLKTIPIEKEADPNDPEAIEKAKEEAEKLAEELLPEDELAEVKAEVLLLSAG [r5_793_JUSTAS] | 1.73 ± 0.11 | 2.36 ± 0.097 | 2.24 ± 0.19 |
| SAGSMRTRKYEVERGEDEIVFPLPDGKVLRLPPDVGATVEVEYDPDGPPVRVTVRFPDGADYVLPYEELSAG [r5_45_JUSTAS] | -0.531 ± 0.45 | 1.11 ± 0.15 | 0.69 ± 0.15 |
| SAGSPATLRAQAEEEARALAAELGAEVTVDVTVEPVPGEYVVRTTATLTFPGGEVRTLPRTTRVPRSLVSAG [r5_609_JUSTAS] | 0.671 ± 0.071 | 1.09 ± 0.08 | 0.953 ± 0.08 |
| SAGSPEELAEKIAEELAAEYEKKNPDKKPVKIEVKEVVVDPEGGSVTIKIKFYDPDGKPLAEPVITVESAGG [r19_53_JUSTAS] | 1.74 ± 0.17 | 1.85 ± 0.13 | 1.76 ± 0.21 |
| SAGSPSIVRTPSLTYDPDPRNPSTPRLRQASVTATNPNGETITFTFTSLEDMDAALNAWIAANPELLSSAGG [r19_123_JUSTAS] | 0.59 ± 0.11 | 1.74 ± 0.089 | 1.38 ± 0.08 |
| SAGSPVTLELRVTRPRADAATGAPATATETVTVTLPAAVVAAGLSPEEIARLLEAANPGATVELTAVASAGG [r19_110_JUSTAS] | 0.844 ± 0.052 | 0.259 ± 0.14 | 0.582 ± 0.07 |
| SAGSRILERLREEGLTITKVTSVEKGPGYERIEVETALPDGTTGKVKVTRDPADPDKIEVELEFTPAEVSAG [r5_683_JUSTAS] | 0.797 ± 0.022 | 1.71 ± 0.023 | 1.38 ± 0.052 |
| SAGSRTVTLTFYRPLSRPPGGAPVVREAERTVTLNLPDDTLSEEEIEALAEELRAEHPDVEVEITIDDSAGG [r19_369_JUSTAS] | 0.664 ± 0.049 | 1.41 ± 0.092 | 1.18 ± 0.17 |
| SAGSSETYSFKSPEEAKKKLKEEYGVSVEELPGNRVRINLVLDNKPVVVLIDTSTNLATVVSPEVVERKSAG [r14_402_JUSTAS] | -0.219 ± 0.21 | -0.291 ± 0.8 | -0.257 ± 0.23 |
| SAGSSISSISRSPVSTEEDPSTNVRRTTYLEKYPGPPNLLKEVTVTTTFAPDGTPTVTPAVTTLSPALLSAG [r5_48_JUSTAS] | -0.817 ± 0.26 | -0.899 ± 0.68 | -0.717 ± 0.17 |
| SAGSSLRLELDLEVTLYAPVVSVRPDGSLSLVPGSTRPIPVRLRVTFELTLDPDNPLNVSINVDIEADFSAG [r14_274_TrMRF] | 4.1 ± 0.076 | 5.9 ± 0.081 | > 6 |
| SAGSSLTTTSTTTFPGTVRVTTKTPDGKTFTLTVSVSTVPTPDGRVVPSVTTTMDPAARSSNVSPEVDRSAG [r5_462_JUSTAS] | -0.463 ± 0.17 | -0.0322 ± 0.075 | -0.144 ± 0.086 |
| SAGSVTTITDPAGTTTEIQPLPDGSLLTTTTTHTTNPATGGATTTTTTTLVSPVPGQPSTTTSTTTTPASAG [r5_424_JUSTAS] | 1.58 ± 0.039 | 0.195 ± 0.027 | 1 ± 0.051 |
| SAGSWIDKLPPSFTSSSPLAKRPDGTRVYAYEYTTESSPSILLVEFDASGRLRKIEKLDPETAAKAIAASAG [r5_73_JUSTAS] | 1.19 ± 0.031 | 1.14 ± 0.071 | 1.22 ± 0.11 |
| SAGSYKLVVKAKAPKGPARIRVFVRLPGGEEKPVAEAEVGSGEVADIEITFPSGKPIDPKNIRVEIVPPSAG [r5_287_TrMRF] | 1.88 ± 0.03 | 1.65 ± 0.066 | 1.8 ± 0.058 |
| SAGTIRGLPAEFAKRIANELAQNGYEIVAVTVTYDPPNGTFKIEVEMRPPNGKVREHDIEIQVRLPPDDSAG [r5_985_TrROS] | 1.72 ± 0.057 | 2.7 ± 0.092 | 2.45 ± 0.17 |

| Sequence | folding stability dG unfold [1] [kcal/mol] | folding stability dG unfold [2] [kcal/mol] | folding stability dG unfold [3] [kcal/mol] |
| --- | --- | --- | --- |
| SAGTIWIPVDELKELGIPPGDTAEEFKQQISDRLMEQGWTVKIPDIEVEPLDPNDGRVWVRINIEFKPPSAG [r5_23_TrROS] | 1.26 ± 0.05 | 0.42 ± 0.2 | 0.94 ± 0.17 |
| SAGTREQVKAIAREIANEIWDTFPDMRGQKFKVKIKVEPEPNGWVRVKVTIQFPGGVQYTFPIWIPVESAGG [r19_194_TrROS] | 3.06 ± 0.11 | 4.4 ± 0.23 | 4.05 ± 0.23 |
| SAGVEELFRRLGAEVSVTRRPDGSLVVTFRLPDGRTIVVFVTPDGVRVVVVDPSGERRTLSLEDLKRLASAG [r14_578_TrMRF] | 3.38 ± 0.059 | 4.098 ± 0.035 | 3.83 ± 0.058 |
| SAGVKPTPSGKNILEIDPETGKIRFVNNNGELFELPTGNDSLDAAIKEAVEKLGYPPDTPFNIDEIKIGSAG [r5_923_TrMRF] | 1.46 ± 0.044 | 1.76 ± 0.065 | 1.54 ± 0.19 |
| SAGWIIKIYFPDKKKEIMISRFPDGQWWMVQVHDKKGEPRQTIPAGMPVDELLKDFPDAKVEVYPFEPPSAG [r5_314_TrROS] | 1.55 ± 0.039 | 2.59 ± 0.051 | 2.21 ± 0.086 |
| SAGWKIKLENIEFFPNGRIRVMFEIEDPNGRPWRVQAQFDPDNPGKIKIKVENPDNGQEQEITFTIKPPSAG [r5_345_TrROS] | 3.15 ± 0.18 | 4.13 ± 0.1 | 3.83 ± 0.24 |
| SAGWQTIDFPIPPGEDIPIPIGNRPLRIQVDPNKNKYEIFNPFLGYRISIDVDPGAGWIKITIEPLKPPSAG [r5_302_TrROS] | 3.34 ± 0.13 | 4.5 ± 0.15 | 3.98 ± 0.26 |
| SAGYIIGYPIIEELFNAGKPEEIRKILKEAVEKDPDKIIIIEVPENPEIAKAIEEAFKEEGIPLIIIPESAG [r14_236_TrMRF] | 1.02 ± 0.035 | 0.81 ± 0.1 | 0.929 ± 0.065 |
| SAGYWEFEIELPNGRKIEIEWQRMNGRYWFKIEVLDDNGKPVREVPIPFPNPEMPFEQMIKNAVKKILDSAG [r5_630_TrROS] | 2.44 ± 0.047 | 3.898 ± 0.032 | 3.41 ± 0.15 |
| SAHTWEIWFPPGLTPEEIQEKLKEEFPGYEIDVDVERDPEPGWYRIEVTMKDPQQRRRVQKKIREILQESAG [r14_443_TrROS] | 2.34 ± 0.12 | 2.39 ± 0.048 | 2.4 ± 0.14 |
| SAIEIYIYPDNWMISIEPPNPNGPEKEIMIPIDKDDLKNPEFLKEIADEIMENGIPVEADIMPPGQPIPSAG [r14_60_TrROS] | 0.857 ± 0.27 | -0.0516 ± 0.13 | 0.307 ± 0.38 |
| SAIVIPIRVQMPPNDPDALEQAKEIADYIADMMMEEGYPFKIEVDDIEWERNPNGHWTVEIPIKIKPPPSAG [r14_48_TrROS] | 1.45 ± 0.18 | 1.25 ± 0.083 | 1.38 ± 0.15 |
| SAKEPVYLVRIRVEIYKDGKPVKELEIEVEVEEGETLEEVLERLREELEKKGYKIVKVEIEVRKLPPPESAG [r14_979_TrROS_Hall] | 3.35 ± 0.13 | 5.04 ± 0.15 | 4.72 ± 0.19 |
| SAKGTLELTFPTTKVTVEVEKVDPVNNKVYARAVFPNGFVVDAVFDPKTGKVYVEVKEVKPTKDGGYSLSAG [r14_466_TrMRF] | 1.24 ± 0.046 | 1.46 ± 0.11 | 1.44 ± 0.15 |
| SAKIEINPEGGQIEMDYELNGKKVKITIQMPPENGMFPVKIEPPDLGKPIEVPYPFNSVDDMLDWAAEASAG [r14_803_TrROS] | 0.488 ± 0.11 | 0.74 ± 0.13 | 0.433 ± 0.36 |
| SAKIKIEKKEDGTIVIEVEAESEEEAEEAVKELVKELEKKGIKVEVVEVKIEKDPEKKGKYRVTIVIKKSAG [r14_119_TrROS_Hall] | 2.69 ± 0.21 | 4.39 ± 0.18 | 3.76 ± 0.33 |
| SAKIVIIPLGDKAIIIITDENGKTKTIELPGISKIEIKGDHLKIYDPKTGKLIIPPNWKGKDIIIIPGKSAG [r14_83_TrMRF] | 2.25 ± 0.22 | 3.32 ± 0.59 | 2.9 ± 0.34 |
| SAKKENSVPVTIEIELEFDSIEKAKKAIEKLAAEIEKETGAKIEIKVEIEEKENNYIVKVELTIYLPKESAG [r14_626_TrMRF] | 1.6 ± 0.06 | 1.55 ± 0.051 | 1.64 ± 0.077 |
| SAKKIKIKEITITVEKNKDGSYTITITVDGKKIAELTFKTPEEAEKAAEELAKELAKKLNVDKIEIKPTSAG [r14_791_TrROS_Hall] | 1.5 ± 0.18 | 2.69 ± 0.25 | 2.09 ± 0.22 |
| SAKKKKVKKKEIKVTLKLKLPGAKIKSVKVEKKGDKLVITVEIELENGEKLKLTAVFDKDGKIVKIELESAG [r14_719_TrROS_Hall] | 1.11 ± 0.11 | 1.96 ± 0.061 | 1.74 ± 0.38 |
| SAKKPKKVIEVTIVLPLEELKNMSLEELLKKILEELGIKEGEKVKIEVKLEEVEIDGKKYLVITVRIELSAG [r14_334_TrROS_Hall] | 2.87 ± 0.13 | 2.69 ± 0.11 | 2.69 ± 0.15 |
